Source: publication PMC12977500, “Mechanistic insights into SteAB regulation of cell wall hydrolase RipA in Mycobacterium tuberculosis” (mBio, 2026)

T1: MtRipACAT (catalytic domain of M. tuberculosis RipA, residues 261–472) (Mycobacterium tuberculosis, UniProt O53168 261-472)
T1 construct: also called MtRipA catalytic domain; NlpC/P60 catalytic domain; not shown: His6, N-terminal, cleaved; SUMO, N-terminal, cleaved
T1 sequence: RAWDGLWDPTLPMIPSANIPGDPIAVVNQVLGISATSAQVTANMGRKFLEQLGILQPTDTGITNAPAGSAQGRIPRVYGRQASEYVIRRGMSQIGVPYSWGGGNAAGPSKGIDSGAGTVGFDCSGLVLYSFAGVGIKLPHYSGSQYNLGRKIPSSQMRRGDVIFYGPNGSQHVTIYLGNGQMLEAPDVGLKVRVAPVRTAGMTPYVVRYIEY

B1: CgSteBΔTM (soluble SteB of Corynebacterium glutamicum) (domain or fragment)
chain: APNLPENIDPNAPTSAELVEAETLAEVNAVQADQADSIIDHIVEDVVAGTLTDRPVLVMRTADAEESDVADVSWLLQQAGAINAGSITLEENFFSQDGADQLKSIVANTLPAGAQLSETQLDPGTHAGEALGAALLLNPETGEPLASTAERGLLLNVLRDNGYISYEDGTILPGQVIVMITGDSDGSGDGAFAAETQSLFARALDAQGSGVVVAGRIHTAADTGVIGRLRANPDAAENVSTIDSVNRTWGKMATVLSVREELAGRSGAFGSAASADAASPSLDGTAAAPAQ
notes: The cloning of this construct is not described here; source: E. coli BL21 (DE3), purified ("pure protein sample")
B2: MtRipACC (coiled-coil domain of M. tuberculosis RipA, residues 40–240) (domain or fragment)
chain: DPQTDTIAALIADVAKANQRLQDLSDEVQAEQESVNKAMVDVETARDNAAAAEDDLEVSQRAVKDANAAIAAAQHRFDTFAAATYMNGPSVSYLSASSPDEIIATVTAAKTLSASSQAVMANLQRARTERVNTESAARLAKQKADKAAADAKASQDAAVAALTETRRKFDEQREEVQRLAAERDAAQARLQAARLVAWSSE
modifications: biotin (EZ-Link NHS-PEG4-Biotin, 20 molar excess) in the BLI assays only
notes: Biotinylated and immobilised on streptavidin sensors for BLI; not biotinylated in the crystal of the complex; also called RipA coiled-coil domain; CC domain of RipA; not shown: His6, N-terminal, cleaved; SUMO, N-terminal, cleaved

Key:
[1] = biological target: the molecule itself; test: SEC; analytical SEC, Superdex-200 3.2/300, 25 mM Hepes pH 8, 150 mM NaCl; calibrated with BioRad gel filtration standard
[2] = biological target: T1, MtRipACAT (catalytic domain of M. …); test: BLI; biotinylated MtRipACC immobilised on streptavidin biosensors; Octet-Red384, 25°C; 25 mM HEPES pH 7.5, 150 mM NaCl, 5% glycerol, 1 mg/mL BSA, 0.05% Tween 20; MtSteB 200–3.125 μM or MtRipACAT 80–1.25 μM; steady-state signal, one-site binding model; apparent Kd; settings: both partners purified

Binder | stoichiometry N [1] | Kd [2] [µM]
B1 | 2 | 
B2 |  | 6.8 ± 1.4
